Measured values published in patent US20260216242A1 (ALMAC DISCOVERY, published 2026).

Tests used:
ALPP CysHis = target: T1, ALPP CysHis (human, UniProt P05187 23-502); assay: ELISA, antigen coated
T1 construct: Whole entry: engineered human ALPP with an introduced cysteine and a His tag; homodimer; also called engineered ALPP homodimer; hALPP (ELISA)
From the text: (§1) ELISA was used to test the binding and specificity of the VHHs. […] Anti-Llama—HRP antibody was used for detection.

ALPI His homodimer = target: T2, ALPI His homodimer (human, UniProt P09923 20-503); assay: ELISA, antigen coated
T2 construct: Whole entry with His tag; used in ELISA and BLI; also called hALPI
T2 sequence: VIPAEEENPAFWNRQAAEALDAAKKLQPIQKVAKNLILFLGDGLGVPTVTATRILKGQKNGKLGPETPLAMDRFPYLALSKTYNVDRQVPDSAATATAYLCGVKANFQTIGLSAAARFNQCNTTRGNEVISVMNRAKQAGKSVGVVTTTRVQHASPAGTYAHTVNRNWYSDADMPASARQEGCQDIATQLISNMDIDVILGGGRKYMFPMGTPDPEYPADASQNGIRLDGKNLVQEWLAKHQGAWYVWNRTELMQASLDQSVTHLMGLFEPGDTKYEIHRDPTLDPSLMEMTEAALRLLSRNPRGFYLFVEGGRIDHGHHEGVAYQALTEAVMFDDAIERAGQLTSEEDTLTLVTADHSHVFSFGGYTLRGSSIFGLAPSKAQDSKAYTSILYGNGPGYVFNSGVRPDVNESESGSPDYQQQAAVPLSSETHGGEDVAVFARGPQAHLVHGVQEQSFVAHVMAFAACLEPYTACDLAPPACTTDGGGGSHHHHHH
From the text: as §1

[1] = target: T3, Human ALPL (leucine zipper) (human); assay: BLI, antigen immobilised
T3 construct: Whole entry: fused with a cysteine stabilised leucine zipper and His tag; also called hALPL
T3 chain: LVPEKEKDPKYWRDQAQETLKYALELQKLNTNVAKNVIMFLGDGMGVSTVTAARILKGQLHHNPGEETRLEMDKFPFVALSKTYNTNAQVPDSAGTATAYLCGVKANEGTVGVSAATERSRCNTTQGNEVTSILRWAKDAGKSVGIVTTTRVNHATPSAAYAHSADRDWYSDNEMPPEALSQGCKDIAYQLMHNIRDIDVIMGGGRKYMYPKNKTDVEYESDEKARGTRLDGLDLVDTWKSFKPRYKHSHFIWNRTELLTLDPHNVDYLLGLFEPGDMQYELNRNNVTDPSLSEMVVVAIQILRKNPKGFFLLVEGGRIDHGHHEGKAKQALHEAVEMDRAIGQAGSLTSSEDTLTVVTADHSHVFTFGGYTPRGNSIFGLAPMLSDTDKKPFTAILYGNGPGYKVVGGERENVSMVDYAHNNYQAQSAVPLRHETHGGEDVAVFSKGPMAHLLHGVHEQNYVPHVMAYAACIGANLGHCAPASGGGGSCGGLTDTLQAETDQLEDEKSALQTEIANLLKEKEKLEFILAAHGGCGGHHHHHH
Experimental: (§2) Binding kinetics were determined using the Biolayer Interferometry (BLI) Octet K2 system (Sartorius). […] All assays were conducted in PBS with a plate temperature of 25° C. Ka (M⁻¹s⁻¹), Kd (s⁻¹) and KD (nM) values were determined using Octet Data Analysis High Throughput software (ForteBio) for Biolayer Interferometry.

[2] = target: T4, Human ALPP (leucine zipper) (human); assay: BLI, antigen immobilised
T4 construct: Whole entry: ALPP fused with a cysteine stabilised leucine zipper and His tag; also called hALPP
T4 chain: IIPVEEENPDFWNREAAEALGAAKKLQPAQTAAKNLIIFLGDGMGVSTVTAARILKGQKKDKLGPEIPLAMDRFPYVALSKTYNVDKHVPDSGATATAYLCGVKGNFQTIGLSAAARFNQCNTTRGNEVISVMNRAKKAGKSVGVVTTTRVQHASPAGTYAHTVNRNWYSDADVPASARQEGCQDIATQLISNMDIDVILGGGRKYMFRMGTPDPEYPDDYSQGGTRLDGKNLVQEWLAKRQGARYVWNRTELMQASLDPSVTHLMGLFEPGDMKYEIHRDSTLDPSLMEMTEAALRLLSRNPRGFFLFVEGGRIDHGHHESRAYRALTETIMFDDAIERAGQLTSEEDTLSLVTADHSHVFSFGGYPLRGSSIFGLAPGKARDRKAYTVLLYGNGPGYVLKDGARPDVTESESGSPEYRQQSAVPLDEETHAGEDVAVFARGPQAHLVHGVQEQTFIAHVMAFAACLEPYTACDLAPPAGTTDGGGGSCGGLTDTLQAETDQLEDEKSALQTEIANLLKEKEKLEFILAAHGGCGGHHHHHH
Experimental: as §2

Binder | binding result (ALPP CysHis) | binding result (ALPI His homodimer) | binding result [1] | Kd [2] | koff [2] | kon [2]
F12 (VHH, not shown: small tags and cut ends) VHH: QVQLVESGGGLVEAGGSLRLSCAVSGSALSDYNIGWFRQAPGKEREFVARKTWDGSSTKYDDSVKGRFTVSIDNAKNTAYLQMNSLKTEDTAVYYCAAGRYSRVRGWEYDYWGQRTQVTVSS | binds | no binding (tested: 500 ng VHH) | no binding | < 10 pM | < 1e-07 s⁻¹ | 38600 M⁻¹ s⁻¹
B09 (VHH, not shown: small tags and cut ends) VHH: QVQLVESGGGSVQAGGSLRLSCAASGPSLSHYAMGWFRQAPGKEREFVAGISWGGGRTSYTDSVKGRFTISRDNAKNTVYLQMNNLKPEDTGVYYCAGRYGRGRNVEYEYDYWGQGTQVTVSS | binds | no binding (tested: 500 ng VHH) | no binding | < 10 pM | < 1e-07 s⁻¹ | 237000 M⁻¹ s⁻¹
H10 (VHH, not shown: small tags and cut ends) VHH: QVQLVESGGGSVQTGGSLRLSCAASGPSLSNYAMGWFRQAPGKEREFVAGISWGGGRTNYLDSVKGRFTISRDNAKNTMYLQMNSLKPEDAAVYYCAGRYGRGRDVEYEYDYWGQGTQVTVSS | binds | no binding (tested: 500 ng VHH) | no binding | 190 pM | 8.5e-06 s⁻¹ | 45900 M⁻¹ s⁻¹
F09 (VHH, not shown: small tags and cut ends) VHH: QVQLVESGGGSVQAGGSLRLSCAASGPSLSNYAMGWFRQAPGKEREFVAGISWGGGRTSCTDSVKGRFTISRDNAKNTVYLQMNNLKPEDTGVYYCAGRYGRGRNVEYEYDYWGQGTQVTVSS | binds | no binding (tested: 500 ng VHH) | no binding | < 10 pM | < 1e-07 s⁻¹ | 40600 M⁻¹ s⁻¹
E12 (VHH, not shown: small tags and cut ends) VHH: QVQLVESGGGSVQAGGSLRLSCAASGPSISNFAMGWFRQAPGKEREFVAGISWGGGRTNYLDSVKGRFTISRDNAKNMVHLQMNSLKPEDTTVYYCAGRYGRGRDVEYEYDYWGQGTQVTVSS | binds | no binding (tested: 500 ng VHH) | no binding | – | – | –
H09 (VHH, not shown: small tags and cut ends) VHH: QVQLVESGGGSVQTGGSLRLSCAASGPSLSNYAMGWFRQAPGKEREFVAGISWGGGRTNYLDSVKGRFTISRDNAKNTMYLQMNSLKPEDTAVYYCAGRYGRGRDVEYEYDYWGQGTQVTVSS | binds | no binding (tested: 500 ng VHH) | no binding | < 10 pM | < 1e-07 s⁻¹ | 58600 M⁻¹ s⁻¹
E11 (VHH, not shown: small tags and cut ends) VHH: QVQLVESGGGSVQAGGSLRLSCAASGPSLSNFAMGWFRQPPGKEREFVAGISWGGGRTSYTDSVKGRFTISRDNAKNTVYLQMNNLKPEDTGVYYCAGRYGRGRNVEYEYDYWGQGTQVTVSS | binds | no binding (tested: 500 ng VHH) | no binding | – | – | 149000 M⁻¹ s⁻¹
